Read-outs that look alike come from different tables or passages of the source.
B1: FXR120-RXRα98 heterodimer (FXR_(120-486) with RXRα_(98-462)) (complex, human)
chain 1: KKPRMGASAGRIKGDELCVVCGDRASGYHYNALTCEGCKGFFRRSITKNAVYKCKNGGNCVMDMYMRRKCQECRLRKCKEMGMLAECMYTGLLTEIQCKSKRLRKNVKQHADQTVNEDSEGRDLRQVTSTTKSCREKTELTPDQQTLLHFIMDSYNKQRMPQEITNKILKEEFSAEENFLILTEMATNHVQVLVEFTKKLPGFQTLDHEDQIALLKGSAVEAMFLRSAEIFNKKLPSGHSDLLEERIRNSGISDEYITPMFSFYKSIGELKMTQEEYALLTAIVILSPDRQYIKDREAVEKLQEPLLDVLQKLCKIHQPENPQHFACLLGRLTELRTFNHHHAEMLMSWRVNDHKFTPLLCEIWDVQ
chain 2: MNPVSSSEDIKPPLGLNGVLKVPAHPSGNMASFTKHICAICGDRSSGKHYGVYSCEGCKGFFKRTVRKDLTYTCRDNKDCLIDKRQRNRCQYCRYQKCLAMGMKREAVQEERQRGKDRNENEVESTSSANEDMPVERILEAELAVEPKTETYVEANMGLNPSSPNDPVTNICQAADKQLFTLVEWAKRIPHFSELPLDDQVILLRAGWNELLIASFSHRSIAVKDGILLATGLHVHRNSAHSAGVGAIFDRVLTELVSKMRDMQMDKTELGCLRAIVLFNPDSKGLSNPAEVEALREKVYASLEAYCKHKYPEQPGRFAKLLLRLPALRSIGLKCLEHLFFFKLIGDTPIDTFLMEMLEAPHQMT
B2: SRC1_(630-987) (domain or fragment, human, UniProt Q15788 630-987, looked up)
chain: SHKLVQLLTTTAEQQLRHADIDTSCKDVLSCTGTSNSASANSSGGSCPSSHSSLTERHKILHRLLQEGSPSDITTLSVEPDKKDSASTSVSVTGQVQGNSSIKLELDASKKKESKDHQLLRYLLDKDEKDLRSTPNLSLDDVKVKVEKKEQMDPCNTNPTPMTKPTPEEIKLEAQSQFTADLDQFDQLLPTLEKAAQLPGLCETDRMDGAVTSVTIKSEILPASLQSATARPTSRLNRLPELELEAIDNQFGQPGTGDQIPWTNNTVTAINQSKSEDQCISSQLDELLCPPTTVEGRNDEKALLEQLVSFLSGKDETELAELDRALGIDKLVQGGGLDVLSERFPPQQATPPLIMEER
modifications: biotin (biotin-labelled in the BLI assays; site not stated)

Columns and labels:
[1] = target: B2; assay: SEC-MALS
[2] = target: SRC1_(630-987) M3 mutant (NR-box3 mutated) (human) (UniProt Q15788); assay: BLI
[3] = target: B1; assay: BLI
[4] = target: B1; assay: BLI; remark: listed apart in the source
[5] = target: B1; assay: BLI; remark: listed apart in the source

stoichiometry N [1] | fold reduction in affinity against wild type SRC1 (630-987) [2] [fold] | Kd [3] [nM] | Kd [4] [nM] | Kd [5] [nM] | Binder
1 | 2 |  |  |  | B1
 |  | 23.7 | 49 | 43.1 | B2
